The text below walks through data of the supplement of paper PMC5998384.

Data set [1] deals with HeLa Kyoto. Put plainly: solubility change mitosis vs G1/S (difference of NP-40 vs SDS log2 ratios) (log2 ratio difference); higher = more soluble in mitosis.
Data set [2] has as its system HeLa Kyoto. The experiment in a line: solubility in G1/S (NP-40 vs SDS abundance) (log2 ratio); higher = more soluble. The settings on record: cell cycle stage: G1/S.
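Wherever solubility change mitosis vs G1/S (difference of NP-40 vs SDS log2 ratios) is given: synchronized HeLa Kyoto cells (double thymidine block for G1/S, nocodazole release for mitosis), protein amounts in NP-40 versus SDS lysates quantified by mass spectrometry, three biological replicates.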
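Wherever solubility in G1/S (NP-40 vs SDS abundance) is given: HeLa Kyoto cells arrested at G1/S by double thymidine block, proteins quantified by TMT10plex mass spectrometry in mild NP-40 versus SDS extracts, three biological replicates.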

Take “MVRDSMAAAFRPSNRVLLQALQILVYPGVGGSGSVSCRCPLGAKRYLLTDNVVKLKEFQQKKVAVACNLSGTKETYFRNLKKKLTQNKLILKGELITLLHLCESRDHVELAKNVIYRYHAENKNFTLGEYKFGPLFVRLCYELDLEESAVELMKDQHLRGFFSDSTSFNILMDMLFIKGKYKSALQVLIEMKNQDVKFTKDTYVLAFAICYKLNSPESFKICTTLREEALLKGEILSRRASCFAVALALNQNEMAKAVSIFSQIMNPESIACINLNIIIHIQSNMLENLIKTLKNAAEGNLSKFVKRHVFSEEVLAKVREKVKDVPALVAKFDEIYGTLHITGQVTTDSLDAVLCHTPRDRKSHTLLLNKRMVSRRTFQPLSQSLLAE [PTCD2]”: the “solubility change mitosis (log2)” value in the data set with HeLa Kyoto [1] turned out to be 0.106. Also, the “solubility in G1/S (log2)” value in the data set with HeLa Kyoto [2] was -0.0152.
Take “MSSRLGAVPATSGPTTFKQQRSTRIVGAKNSRTQCSIKDNSFQYTIPHDDSLSGSSSASSCEPVSDFPASFRKSTYWMKMRRIKPAATSHVEGSGGVSAKGKRKPRQEEDEDYREFPQKKHKLYGRKQRPKTQPNPKSQARRIRKEPPVYAAGSLEEQWYLEIVDKGSVSCPTCQAVGRKTIEGLKKHMENCKQEMFTCHHCGKQLRSLAGMKYHVMANHNSLPILKAGDEIDEPSERERLRTVLKRLGKLRCMRESCSSSFTSIMGYLYHVRKCGKGAAELEKMTLKCHHCGKPYRSKAGLAYHLRSEHGPISFFPESGQPECLKEMNLESKSGGRVQRRSAKIAVYHLQELASAELAKEWPKRKVLQDLVPDDRKLKYTRPGLPTFSQEVLHKWKTDIKKYHRIQCPNQGCEAVYSSVSGLKAHLGSCTLGNFVAGKYKCLLCQKEFVSESGVKYHINSVHAEDWFVVNPTTTKSFEKLMKIKQRQQEEEKRRQQHRSRRSLRRRQQPGIELPETELSLRVGKDQRRNNEELVVSASCKEPEQEPVPAQFQKVKPPKTNHKRGRK [ZNF512]”: the “solubility change mitosis (log2)” value in the data set on HeLa Kyoto [1] worked out at 1.4. Further, the “solubility in G1/S (log2)” value with HeLa Kyoto [2] was -2.03.
As to “MDFSFSFMQGIMGNTIQQPPQLIDSANIRQEDAFDNNSDIAEDGGQTPYEATLQQGFQYPATTEDLPPLTNGYPSSISVYETQTKYQSYNQYPNGSANGFGAVRNFSPTDYYHSEIPNTRPHEILEKPSPPQPPPPPSVPQTVIPKKTGSPEIKLKITKTIQNGRELFESSLCGDLLNEVQASEHTKSKHESRKEKRKKSNKHDSSRSEERKSHKIPKLEPEEQNRPNERVDTVSEKPREEPVLKEEAPVQPILSSVPTTEVSTGVKFQVGDLVWSKVGTYPWWPCMVSSDPQLEVHTKINTRGAREYHVQFFSNQPERAWVHEKRVREYKGHKQYEELLAEATKQASNHSEKQKIRKPRPQRERAQWDIGIAHAEKALKMTREERIEQYTFIYIDKQPEEALSQAKKSVASKTEVKKTRRPRSVLNTQPEQTNAGEVASSLSSTEIRRHSQRRHTSAEEEEPPPVKIAWKTAAARKSLPASITMHKGSLDLQKCNMSPVVKIEQVFALQNATGDGKFIDQFVYSTKGIGNKTEISVRGQDRLIISTPNQRNEKPTQSVSSPEATSGSTGSVEKKQQRRSIRTRSESEKSTEVVPKKKIKKEQVETVPQATVKTGLQKGASEISDSCKPLKKRSRASTDVEMTSSAYRDTSDSDSRGLSDLQVGFGKQVDSPSATADADVSDVQSMDSSLSRRGTGMSKKDTVCQICESSGDSLIPCEGECCKHFHLECLGLASLPDSKFICMECKTGQHPCFSCKVSGKDVKRCSVGACGKFYHEACVRKFPTAIFESKGFRCPQHCCSACSMEKDIHKASKGRMMRCLRCPVAYHSGDACIAAGSMLVSSYILICSNHSKRSSNSSAVNVGFCFVCARGLIVQDHSDPMFSSYAYKSHYLLNESNRAELMKLPMIPSSSASKKKCEKGGRLLCCESCPASFHPECLSIEMPEGCWNCNDCKAGKKLHYKQIVWVKLGNYRWWPAEICNPRSVPLNIQGLKHDLGDFPVFFFGSHDYYWVHQGRVFPYVEGDKSFAEGQTSINKTFKKALEEAAKRFQELKAQRESKEALEIEKNSRKPPPYKHIKANKVIGKVQIQVADLSEIPRCNCKPADENPCGLESECLNRMLQYECHPQVCPAGDRCQNQCFTKRLYPDAEIIKTERRGWGLRTKRSIKKGEFVNEYVGELIDEEECRLRIKRAHENSVTNFYMLTVTKDRIIDAGPKGNYSRFMNHSCNPNCETQKWTVNGDVRVGLFALCDIPAGMELTFNYNLDCLGNGRTECHCGADNCSGFLGVRPKSACASTNEEKAKNAKLKQKRRKIKTEPKQMHEDYCFQCGDGGELVMCDKKDCPKAYHLLCLNLTQPPYGKWECPWHQCDECSSAAVSFCEFCPHSFCKDHEKGALVPSALEGRLCCSEHDPMAPVSPEYWSKIKCKWESQDHGEEVKE [WHSC1L1]”, the “solubility change mitosis (log2)” value with HeLa Kyoto [1] came to 0.362. For the same sequence, the “solubility in G1/S (log2)” value in the data set with HeLa Kyoto [2] was -0.563.
On the same counts, the results for “MWYHRLSHLHSRLQDLLKGGVIYPALPQPNFKSLLPLAVHWHHTASKSLTCAWQQHEDHFELKYANTVMRFDYVWLRDHCRSASCYNSKTHQRSLDTASVDLCIKPKTIRLDETTLFFTWPDGHVTKYDLNWLVKNSYEGQKQKVIQPRILWNAEIYQQAQVPSVDCQSFLETNEGLKKFLQNFLLYGIAFVENVPPTQEHTEKLAERISLIRETIYGRMWYFTSDFSRGDTAYTKLALDRHTDTTYFQEPCGIQVFHCLKHEGTGGRTLLVDGFYAAEQVLQKAPEEFELLSKVPLKHEYIEDVGECHNHMIGIGPVLNIYPWNKELYLIRYNNYDRAVINTVPYDVVHRWYTAHRTLTIELRRPENEFWVKLKPGRVLFIDNWRVLHGRECFTGYRQLCGCYLTRDDVLNTARLLGLQA [TMLHE]” are 0.114 and -0.167.
The corresponding values for “MDIIETAKLEEHLENQPSDPTNTYARPAEPVEEENKNGNGKPKSLSSGLRKGTKKYPDYIQIAMPTESRNKFPLEWWKTGIAFIYAVFNLVLTTVMITVVHERVPPKELSPPLPDKFFDYIDRVKWAFSVSEINGIILVGLWITQWLFLRYKSIVGRRFCFIIGTLYLYRCITMYVTTLPVPGMHFQCAPKLNGDSQAKVQRILRLISGGGLSITGSHILCGDFLFSGHTVTLTLTYLFIKEYSPRHFWWYHLICWLLSAAGIICILVAHEHYTIDVIIAYYITTRLFWWYHSMANEKNLKVSSQTNFLSRAWWFPIFYFFEKNVQGSIPCCFSWPLSWPPGCFKSSCKKYSRVQKIGEDNEKST [SGMS2]” are -0.0915 and -0.197.
As to “MEEPEEPADSGQSLVPVYIYSPEYVSMCDSLAKIPKRASMVHSLIEAYALHKQMRIVKPKVASMEEMATFHTDAYLQHLQKVSQEGDDDHPDSIEYGLGYDCPATEGIFDYAAAIGGATITAAQCLIDGMCKVAINWSGGWHHAKKDEASGFCYLNDAVLGILRLRRKFERILYVDLDLHHGDGVEDAFSFTSKVMTVSLHKFSPGFFPGTGDVSDVGLGKGRYYSVNVPIQDGIQDEKYYQICESVLKEVYQAFNPKAVVLQLGADTIAGDPMCSFNMTPVGIGKCLKYILQWQLATLILGGGGYNLANTARCWTYLTGVILGKTLSSEIPDHEFFTAYGPDYVLEITPSCRPDRNEPHRIQQILNYIKGNLKHVV [HDAC8]”, the “solubility change mitosis (log2)” value in the data set on HeLa Kyoto [1] is -0.213. The “solubility in G1/S (log2)” value in the data set on HeLa Kyoto [2] was found to be 0.168.
The corresponding values for “MDKNIGEQLNKAYEAFRQACMDRDSAVKELQQKTENYEQRIREQQEQLSLQQTIIDKLKSQLLLVNSTQDNNYGCVPLLEDSETRKNNLTLDQPQDKVISGIAREKLPKVRRQEVSSPRKETSARSLGSPLLHERGNIEKTFWDLKEEFHKICMLAKAQKDHLSKLNIPDTATETQCSVPIQCTDKTDKQEALFKPQAKDDINRGAPSITSVTPRGLCRDEEDTSFESLSKFNVKFPPMDNDSTFLHSTPERPGILSPATSEAVCQEKFNMEFRDNPGNFVKTEETLFEIQGIDPIASAIQNLKTTDKTKPSNLVNTCIRTTLDRAACLPPGDHNALYVNSFPLLDPSDAPFPSLDSPGKAIRGPQQPIWKPFPNQDSDSVVLSGTDSELHIPRVCEFCQAVFPPSITSRGDFLRHLNSHFNGET [TANK]” are -0.0338 and -0.138.
On the same counts, the results for “MVKLFIGNLPREATEQEIRSLFEQYGKVLECDIIKNYGFVHIEDKTAAEDAIRNLHHYKLHGVNINVEASKNKSKASTKLHVGNISPTCTNQELRAKFEEYGPVIECDIVKDYAFVHMERAEDAVEAIRGLDNTEFQGKRMHVQLSTSRLRTAPGMGDQSGCYRCGKEGHWSKECPVDRTGRVADFTEQYNEQYGAVRTPYTMGYGESMYYNDAYGALDYYKRYRVRSYEAVAAAAAASAYNYAEQTMSHLPQVQSTTVTSHLNSTSVDPYDRHLLPNSGAAATSAAMAAAAATTSSYYGRDRSPLRRAAAMLPTVGEGYGYGPESELSQASAATRNSLYDMARYEREQYVDRARYSAF [RBM4B]” are -0.335 and 0.227.
The corresponding values for “MSVTEEDLCHHMKVVVRVRPENTKEKAAGFHKVVHVVDKHILVFDPKQEEVSFFHGKKTTNQNVIKKQNKDLKFVFDAVFDETSTQSEVFEHTTKPILRSFLNGYNCTVLAYGATGAGKTHTMLGSADEPGVMYLTMLHLYKCMDEIKEEKICSTAVSYLEVYNEQIRDLLVNSGPLAVREDTQKGVVVHGLTLHQPKSSEEILHLLDNGNKNRTQHPTDMNATSSRSHAVFQIYLRQQDKTASINQNVRIAKMSLIDLAGSERASTSGAKGTRFVEGTNINRSLLALGNVINALADSKRKNQHIPYRNSKLTRLLKDSLGGNCQTIMIAAVSPSSVFYDDTYNTLKYANRAKDIKSSLKSNVLNVNNHITQYVKICNEQKAEILLLKEKLKAYEEQKAFTNENDQAKLMISNPQEKEIERFQEILNCLFQNREEIRQEYLKLEMLLKENELKSFYQQQCHKQIEMMCSEDKVEKATGKRDHRLAMLKTRRSYLEKRREEELKQFDENTNWLHRVEKEMGLLSQNGHIPKELKKDLHCHHLHLQNKDLKAQIRHMMDLACLQEQQHRQTEAVLNALLPTLRKQYCTLKEAGLSNAAFESDFKEIEHLVERKKVVVWADQTAEQPKQNDLPGISVLMTFPQLGPVQPIPCCSSSGGTNLVKIPTEKRTRRKLMPSPLKGQHTLKSPPSQSVQLNDSLSKELQPIVYTPEDCRKAFQNPSTVTLMKPSSFTTSFQAISSNINSDNCLKMLCEVAIPHNRRKECGQEDLDSTFTICEDIKSSKCKLPEQESLPNDNKDILQRLDPSSFSTKHSMPVPSMVPSYMAMTTAAKRKRKLTSSTSNSSLTADVNSGFAKRVRQDNSSEKHLQENKPTMEHKRNICKINPSMVRKFGRNISKGNLR [KIF18A]” are -0.237 and -0.624.
For “MAANSSGQGFQNKNRVAILAELDKEKRKLLMQNQSSTNHPGASIALSRPSLNKDFRDHAEQQHIAAQQKAALQHAHAHSSGYFITQDSAFGNLILPVLPRLDPE [INIP]”, the “solubility change mitosis (log2)” value in the data set on HeLa Kyoto [1] is 0.407. Moreover, in the data set on HeLa Kyoto [2], the “solubility in G1/S (log2)” value was -0.135.
On the same counts, the results for “MAQGLIEVERKFLPGPGTEERLQELGGTLEYRVTFRDTYYDTPELSLMQADHWLRRREDSGWELKCPGAAGVLGPHTEYKELTAEPTIVAQLCKVLRADGLGAGDVAAVLGPLGLQEVASFVTKRSAWKLVLLGADEEEPQLRVDLDTADFGYAVGEVEALVHEEAEVPTALEKIHRLSSMLGVPAQETAPAKLIVYLQRFRPQDYQRLLEVNSSRERPQETEDPDHCLG [THTPA]” are 0.0566 and 0.0904.
